# Data as given in US20140271457A1 (AbbVie / Abbott, published 2014).
# B1: DVD2802 (bispecific antibody, IgG1)
# VH: EVQLVQSGAEVKKPGASVKVSCKASGYTFTKYWLGWVRQAPGQGLEWMGDIYPGYDYTHYNEKFKDRVTLTTDTSTSTAYMELRSLRSDDTAVYYCARSDGSSTYWGQGTLVTVSSASTKGPSVFPLAPEVQLVQSGAEVKKPGASVKVSCKASGYTFANYGIIWVRQAPGQGLEWMGWINTYTGKPTYAQKFQGRVTMTTDTSTSTAYMELSSLRSEDTAVYYCARKLFTTMDVTDNAMDYWGQGTTVTVSS
# VL: DVLMTQTPLSLPVTPGEPASISCTSSQNIVHSNGNTYLEWYLQKPGQSPQLLIYKVSNRFSGVPDRFSGSGSGTDFTLKISRVEAEDVGVYYCFQVSHVPYTFGGGTKVEIKRTVAAPDIQMTQSPSSLSASVGDRVTITCRASQDISQYLNWYQQKPGKAPKLLIYYTSRLQSGVPSRFSGSGSGTDFTLTISSLQPEDFATYFCQQGNTWPPTFGQGTKLEIKR
# B2: DVD3027 (bispecific antibody, IgG1)
# VH: EVQLVQSGAEVKKPGASVKVSCKASGYTFTKYWLGWVRQAPGQGLEWMGDIYPGYDYTHYNEKFKDRVTLTTDTSTSTAYMELRSLRSDDTAVYYCARSDGSSTYWGQGTLVTVSSASTKGPSVFPLAPEVQLVQSGAEVKKPGASVKVSCKASGYTFNNYGIIWVRQAPGQGLEWMGWINTYTGKPTYAQKFQGRVTMTTDTSTSTAYMELSSLRSEDTAVYYCARKLFNTVAVTDNAMDYWGQGTTVTVSS
# VL: DVLMTQTPLSLPVTPGEPASISCTSSQNIVHSNGNTYLEWYLQKPGQSPQLLIYKVSNRFSGVPDRFSGSGSGTDFTLKISRVEAEDVGVYYCFQVSHVPYTFGGGTKVEIKRTVAAPDIQMTQSPSSLSASVGDRVTITCRASQDIENYLNWYQQKPGKAPKLLIYYTSRLQSGVPSRFSGSGSGTDFTLTISSLQPEDFATYFCQQGNTQPPTFGQGTKLEIKR
# B3: DVD3024 (bispecific antibody, IgG1)
# VH: EVQLVQSGAEVKKPGASVKVSCKASGYTFTKYWLGWVRQAPGQGLEWMGDIYPGYDYTHYNEKFKDRVTLTTDTSTSTAYMELRSLRSDDTAVYYCARSDGSSTYWGQGTLVTVSSASTKGPEVQLVQSGAEVKKPGASVKVSCKASGYTFNNYGIIWVRQAPGQGLEWMGWINTYTGKPTYAQKFQGRVTMTTDTSTSTAYMELSSLRSEDTAVYYCARKLFNTVAVTDNAMDYWGQGTTVTVSS
# VL: DVLMTQTPLSLPVTPGEPASISCTSSQNIVHSNGNTYLEWYLQKPGQSPQLLIYKVSNRFSGVPDRFSGSGSGTDFTLKISRVEAEDVGVYYCFQVSHVPYTFGGGTKVEIKRTVAAPDIQMTQSPSSLSASVGDRVTITCRASQDIENYLNWYQQKPGKAPKLLIYYTSRLQSGVPSRFSGSGSGTDFTLTISSLQPEDFATYFCQQGNTQPPTFGQGTKLEIKR
# B4: DVD3026 (bispecific antibody, IgG1)
# VH: EVQLVQSGAEVKKPGASVKVSCKASGYTFTKYWLGWVRQAPGQGLEWMGDIYPGYDYTHYNEKFKDRVTLTTDTSTSTAYMELRSLRSDDTAVYYCARSDGSSTYWGQGTLVTVSSASTKGPEVQLVQSGAEVKKPGASVKVSCKASGYTFNNYGIIWVRQAPGQGLEWMGWINTYTGKPTYAQKFQGRVTMTTDTSTSTAYMELSSLRSEDTAVYYCARKLFNTVAVTDNAMDYWGQGTTVTVSS
# VL: DVLMTQTPLSLPVTPGEPASISCTSSQNIVHSNGNTYLEWYLQKPGQSPQLLIYKVSNRFSGVPDRFSGSGSGTDFTLKISRVEAEDVGVYYCFQVSHVPYTFGGGTKVEIKRTVAAPSVFIFPPDIQMTQSPSSLSASVGDRVTITCRASQDIENYLNWYQQKPGKAPKLLIYYTSRLQSGVPSRFSGSGSGTDFTLTISSLQPEDFATYFCQQGNTQPPTFGQGTKLEIKR
# B5: DVD3203 (bispecific antibody, IgG1)
# VH: EVQLVESGGGLVQPGGSLRLSCAASGFTFSNYGVTWVRQAPGKGLEWVSMIWADGSTHYASSVKGRFTISRDNSKNTLYLQMNSLRAEDTAVYYCAREWQHGPVAYWGQGTLVTVSSGGGGSGGGGSEVQLVESGGGLVQPGGSLRLSCAASGFSFSKYWLGWVRQAPGKGLEWVSDIYPGYDYTHYNEKFKDRFTISADTSKNTAYLQMNSLRAEDTAVYYCARSDGSSTYWGQGTLVTVSS
# VL: DIQMTQSPSSLSASVGDRVTITCRASQLVSSAVAWYQQKPGKAPKLLIYWASARHTGVPSRFSGSGSGTDFTLTISSLQPEDFATYYCQQHYKTPFTFGQGTKLEIKRGGSGGGGSGDIQMTQSPSSLSASVGDRVTITCTSSQNIVHSNGNTYLEWYQQKPGKAPKLLIYKVSNRFSGVPSRFSGSGSGTDFTLTISSLQPEDFATYYCFQVSHVPYTFGQGTKVEIKR
# B6: DVD3018 (bispecific antibody, IgG1)
# VH: EVQLVQSGAEVKKPGASVKVSCKASGYTFNNYGIIWVRQAPGQGLEWMGWINTYTGKPTYAQKFQGRVTMTTDTSTSTAYMELSSLRSEDTAVYYCARKLFNTVAVTDNAMDYWGQGTTVTVSSGGGGSGGGGSEVQLVQSGAEVKKPGASVKVSCKASGYTFTKYWLGWVRQAPGQGLEWMGDIYPGYDYTHYNEKFKDRVTLTTDTSTSTAYMELRSLRSDDTAVYYCARSDGSSTYWGQGTLVTVSS
# VL: DIQMTQSPSSLSASVGDRVTITCRASQDIENYLNWYQQKPGKAPKLLIYYTSRLQSGVPSRFSGSGSGTDFTLTISSLQPEDFATYFCQQGNTQPPTFGQGTKLEIKRGGSGGGGSGDVLMTQTPLSLPVTPGEPASISCTSSQNIVHSNGNTYLEWYLQKPGQSPQLLIYKVSNRFSGVPDRFSGSGSGTDFTLKISRVEAEDVGVYYCFQVSHVPYTFGGGTKVEIKR
# B7: DVD3204 (bispecific antibody, IgG1)
# VH: EVQLVESGGGLVQPGGSLRLSCAASGFTFSNYGVTWVRQAPGKGLEWVSMIWADGSTHYASSVKGRFTISRDNSKNTLYLQMNSLRAEDTAVYYCAREWQHGPVAYWGQGTLVTVSSASTKGPEVQLVESGGGLVQPGGSLRLSCAASGFSFSKYWLGWVRQAPGKGLEWVSDIYPGYDYTHYNEKFKDRFTISADTSKNTAYLQMNSLRAEDTAVYYCARSDGSSTYWGQGTLVTVSS
# VL: DIQMTQSPSSLSASVGDRVTITCRASQLVSSAVAWYQQKPGKAPKLLIYWASARHTGVPSRFSGSGSGTDFTLTISSLQPEDFATYYCQQHYKTPFTFGQGTKLEIKRTVAAPDIQMTQSPSSLSASVGDRVTITCTSSQNIVHSNGNTYLEWYQQKPGKAPKLLIYKVSNRFSGVPSRFSGSGSGTDFTLTISSLQPEDFATYYCFQVSHVPYTFGQGTKVEIKR
# B8: DVD3206 (bispecific antibody, IgG1)
# VH: EVQLVESGGGLVQPGGSLRLSCAASGFTFSNYGVTWVRQAPGKGLEWVSMIWADGSTHYASSVKGRFTISRDNSKNTLYLQMNSLRAEDTAVYYCAREWQHGPVAYWGQGTLVTVSSASTKGPEVQLVESGGGLVQPGGSLRLSCAASGFSFSKYWLGWVRQAPGKGLEWVSDIYPGYDYTHYNEKFKDRFTISADTSKNTAYLQMNSLRAEDTAVYYCARSDGSSTYWGQGTLVTVSS
# VL: DIQMTQSPSSLSASVGDRVTITCRASQLVSSAVAWYQQKPGKAPKLLIYWASARHTGVPSRFSGSGSGTDFTLTISSLQPEDFATYYCQQHYKTPFTFGQGTKLEIKRTVAAPSVFIFPPDIQMTQSPSSLSASVGDRVTITCTSSQNIVHSNGNTYLEWYQQKPGKAPKLLIYKVSNRFSGVPSRFSGSGSGTDFTLTISSLQPEDFATYYCFQVSHVPYTFGQGTKVEIKR
# B9: DVD3023 (bispecific antibody, IgG1)
# VH: EVQLVQSGAEVKKPGASVKVSCKASGYTFTKYWLGWVRQAPGQGLEWMGDIYPGYDYTHYNEKFKDRVTLTTDTSTSTAYMELRSLRSDDTAVYYCARSDGSSTYWGQGTLVTVSSGGGGSGGGGSEVQLVQSGAEVKKPGASVKVSCKASGYTFNNYGIIWVRQAPGQGLEWMGWINTYTGKPTYAQKFQGRVTMTTDTSTSTAYMELSSLRSEDTAVYYCARKLFNTVAVTDNAMDYWGQGTTVTVSS
# VL: DVLMTQTPLSLPVTPGEPASISCTSSQNIVHSNGNTYLEWYLQKPGQSPQLLIYKVSNRFSGVPDRFSGSGSGTDFTLKISRVEAEDVGVYYCFQVSHVPYTFGGGTKVEIKRGGSGGGGSGDIQMTQSPSSLSASVGDRVTITCRASQDIENYLNWYQQKPGKAPKLLIYYTSRLQSGVPSRFSGSGSGTDFTLTISSLQPEDFATYFCQQGNTQPPTFGQGTKLEIKR
# B10: DVD3019 (bispecific antibody, IgG1)
# VH: EVQLVQSGAEVKKPGASVKVSCKASGYTFNNYGIIWVRQAPGQGLEWMGWINTYTGKPTYAQKFQGRVTMTTDTSTSTAYMELSSLRSEDTAVYYCARKLFNTVAVTDNAMDYWGQGTTVTVSSASTKGPEVQLVQSGAEVKKPGASVKVSCKASGYTFTKYWLGWVRQAPGQGLEWMGDIYPGYDYTHYNEKFKDRVTLTTDTSTSTAYMELRSLRSDDTAVYYCARSDGSSTYWGQGTLVTVSS
# VL: DIQMTQSPSSLSASVGDRVTITCRASQDIENYLNWYQQKPGKAPKLLIYYTSRLQSGVPSRFSGSGSGTDFTLTISSLQPEDFATYFCQQGNTQPPTFGQGTKLEIKRTVAAPDVLMTQTPLSLPVTPGEPASISCTSSQNIVHSNGNTYLEWYLQKPGQSPQLLIYKVSNRFSGVPDRFSGSGSGTDFTLKISRVEAEDVGVYYCFQVSHVPYTFGGGTKVEIKR
# B11: DVD3022 (bispecific antibody, IgG1)
# VH: EVQLVQSGAEVKKPGASVKVSCKASGYTFNNYGIIWVRQAPGQGLEWMGWINTYTGKPTYAQKFQGRVTMTTDTSTSTAYMELSSLRSEDTAVYYCARKLFNTVAVTDNAMDYWGQGTTVTVSSASTKGPSVFPLAPEVQLVQSGAEVKKPGASVKVSCKASGYTFTKYWLGWVRQAPGQGLEWMGDIYPGYDYTHYNEKFKDRVTLTTDTSTSTAYMELRSLRSDDTAVYYCARSDGSSTYWGQGTLVTVSS
# VL: DIQMTQSPSSLSASVGDRVTITCRASQDIENYLNWYQQKPGKAPKLLIYYTSRLQSGVPSRFSGSGSGTDFTLTISSLQPEDFATYFCQQGNTQPPTFGQGTKLEIKRTVAAPDVLMTQTPLSLPVTPGEPASISCTSSQNIVHSNGNTYLEWYLQKPGQSPQLLIYKVSNRFSGVPDRFSGSGSGTDFTLKISRVEAEDVGVYYCFQVSHVPYTFGGGTKVEIKR
# B12: DVD3021 (bispecific antibody, IgG1)
# VH: EVQLVQSGAEVKKPGASVKVSCKASGYTFNNYGIIWVRQAPGQGLEWMGWINTYTGKPTYAQKFQGRVTMTTDTSTSTAYMELSSLRSEDTAVYYCARKLFNTVAVTDNAMDYWGQGTTVTVSSASTKGPEVQLVQSGAEVKKPGASVKVSCKASGYTFTKYWLGWVRQAPGQGLEWMGDIYPGYDYTHYNEKFKDRVTLTTDTSTSTAYMELRSLRSDDTAVYYCARSDGSSTYWGQGTLVTVSS
# VL: DIQMTQSPSSLSASVGDRVTITCRASQDIENYLNWYQQKPGKAPKLLIYYTSRLQSGVPSRFSGSGSGTDFTLTISSLQPEDFATYFCQQGNTQPPTFGQGTKLEIKRTVAAPSVFIFPPDVLMTQTPLSLPVTPGEPASISCTSSQNIVHSNGNTYLEWYLQKPGQSPQLLIYKVSNRFSGVPDRFSGSGSGTDFTLKISRVEAEDVGVYYCFQVSHVPYTFGGGTKVEIKR
# Target: Recombinant Human TNF-α/TNFSF1A (human, UniProt P01375 77-233)
# Sequence (P01375 77-233 limits assumed): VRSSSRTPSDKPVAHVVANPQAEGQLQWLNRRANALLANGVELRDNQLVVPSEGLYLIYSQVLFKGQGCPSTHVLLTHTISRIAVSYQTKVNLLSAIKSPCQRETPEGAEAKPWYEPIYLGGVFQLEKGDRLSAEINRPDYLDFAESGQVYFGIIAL
# Assay: cell-based or functional assay
Binder,C-Terminal VD huTNFα Neutralization Assay IC50,N-Terminal VD huTNFα Neutralization Assay IC50
B1,0.195 nM,
B2,0.076 nM,
B3,0.934 nM,
B4,0.038 nM,
B5,,0.071 nM
B6,,0.008 nM
B7,,0.001 nM
B8,,0.001 nM
B9,0.203 nM,
B10,,0.009 nM
B11,,0.016 nM
B12,,0.007 nM
